Measurements reported in patent publication US8663616B2, “Enzymatic peracid generation for use in oral care products” (E I du Pont de Nemours and Company, priority 2010, dated 2014).
Each block holds one molecule with its values, some of them ahead of it.

Assays:
[1] = Peracetic acid generated in solution by CE-7 perhydrolase fusions (Example 8); assay type: biochemical; conditions: 0.5 μM enzyme, 100 mM triacetin, 100 mM H2O2, pH 7.2, 10 min, 37° C.; no enzyme 378.9
Method: (§1) The detection of peracetic acid followed the method described in Pinkernell et. al. (Analyst, 1997, 122, 567) using colorimetric detection of 2,2′-azino-bis(3-ethylbenzothiazoline(-6-sulfonate (ABTS) oxidation by peracetic acid. Following the formation of peracetic acid with the addition of triacetin and hydrogen peroxide, 90 μL of solution was added to 10 μL of 0.1 M H3PO4 in a well plate. 50 μL of 1 M acetic acid, 50 μL of 0.5 g/L ABTS and 50 μL of 0.002 g/L of KI was added. The solution was allowed to develop for 5 min. The absorbance of the solution was measured at 405 nm using a microplate reader. The peracetic acid concentration was calculated based on a standard curve developed simultaneously using peracetic acid reagent solution.
Perhydrolase enzymes listed in Table 6 were assessed for solution activities. The method to measure the perhydrolase in solution activity was described in Example 7 by making a 500 μL solution containing 0.5 μM of enzyme, 100 mM triacetin, 100 mM H2O2 in 100 mM phosphate buffer, pH 7.2. The solution was mixed and incubated for 10 min at 37° C. A 10 μL aliquot was removed and diluted for detection as described in Example 7. Peracetic acid concentration was determined using a standard curve generated with a stock solution of peracetic acid (Aldrich). The experiment was also performed with no enzyme present as a control.

[2] = Peracetic acid generation from hydroxyapatite bound CE-7 perhydrolase fusions (Example 8); assay type: biochemical; conditions: for Peracetic acid (ppm): hydroxyapatite particles exposed to 10 μM enzyme, washed, 100 mM triacetin, 100 mM H2O2, 30 min, 37° C., no enzyme 30-118.8
Method: as §1
To assess binding of these constructs to hydroxyapatite, 33 mg of hydroxyapatite particles (Macro-prep Ceramic Hydroxyapatite TYPE I, 80 μm size BioRad, Hercules, Calif.), were washed with 10 mM phosphate buffer at pH 7.2. After removing the supernatant, enzyme stock solution was added to the hydroxyapatite dispersion to a final concentration of 10 μM and incubated for 30 min in a microcentrifuge tube with gentle agitation. Each sample was centrifuged for 1 min at 10000 rpm. The supernatant was removed and additional buffer was added. The particles were resuspended and transferred to a new tube. The process was repeated two additional times. The hydroxyapatite bound enzyme activity was measured by adding a 500 μl solution containing 100 mM triacetin, 100 mM H2O2 in 100 mM phosphate buffer, pH 7.2. The solution was incubated for 30 min, at 37° C. An aliquot was removed and mixed with H3PO4 and properly diluted for detection via ABTS oxidation as described in Example 7. The experiments were performed at different day with no enzyme as control for each experiment.

- PAA (ppm) [1]: 2332.9 ppm
- Peracetic acid (ppm) [2]: 634.9 ppm
B5: EZ-27: Bpu-link1-H6, SEQ ID NO: 451 (protein)
chain: MQLFDLSLEELKKYKPKKTARPDFSDFWKKSLEELRQVEAEPTLESYDYPVKGVKVYRLTYQSFGHSKIEGFYAVPDQTGPHPALVRFHGYNASYDGGIHDIVNWALHGYATFGMLVRGQGGSEDTSVTPGGHALGWMTKGILSKDTYYYRGVYLDAVRALEVIQSFPEVDEHRIGVIGGSQGGALAIAAAALSDIPKVVVADYPYLSNFERAVDVALEQPYLEINSYFRRNSDPKVEEKAFETLSYFDLINLAGWVKQPTLMAIGLIDKITPPSTVFAAYNHLETDKDLKVYRYFGHEFIPAFQTEKLSFLQKHLLLSTGPGSGGAGSPGSAGGPGSHHHHHH

- PAA (ppm) [1]: 2512.7 ppm
- Peracetic acid (ppm) [2]: 534.2 ppm
B6: EZ-28: Bpu-link1-HC263-H6, SEQ ID NO: 452 (protein)
chain: MQLFDLSLEELKKYKPKKTARPDFSDFWKKSLEELRQVEAEPTLESYDYPVKGVKVYRLTYQSFGHSKIEGFYAVPDQTGPHPALVRFHGYNASYDGGIHDIVNWALHGYATFGMLVRGQGGSEDTSVTPGGHALGWMTKGILSKDTYYYRGVYLDAVRALEVIQSFPEVDEHRIGVIGGSQGGALAIAAAALSDIPKVVVADYPYLSNFERAVDVALEQPYLEINSYFRRNSDPKVEEKAFETLSYFDLINLAGWVKQPTLMAIGLIDKITPPSTVFAAYNHLETDKDLKVYRYFGHEFIPAFQTEKLSFLQKHLLLSTGPGSGGAGSPGSAGGPGSPSAQSQLPDKHSGLHERAPQRYGPEPEPEPEPIPEPPKEAPVVIEKPKPKPKPKPKPPAHDHKNQKETHQRHAAGSGGGGSPHHHHHH

- PAA (ppm) [1]: 497.7 ppm
- Peracetic acid (ppm) [2]: 419.3 ppm
B8: EZ-32: Mlo-link1-DenP308-H6, SEQ ID NO: 456 (protein)
chain: MPFPDLIQPELGAYVSSVGMPDDFAQFWTSTIAEARQAGGEVSIVQAQTTLKAVQSFDVTFPGYGGHPIKGWLILPTHHKGRLPLVVQYIGYGGGRGLAHEQLHWAASGFAYFRMDTRGQGSDWSVGETADPVGSTSSIPGFMTRGVLDKNDYYYRRLFTDAVRAIDALLGLDFVDPERIAVCGDSQGGGISLAVGGIDPRVKAVMPDVPFLCDFPRAVQTAVRDPYLEIVRFLAQHREKKAAVFETLNYFDCVNFARRSKAPALFSVALMDEVCPPSTVYGAFNAYAGEKTITEYEFNNHEGGQGYQERQQMTWLSRLFGVGGPGSGGAGSPGSAGGPGSDPTKPPRTPTANTSRPHHNFGSGGGGSPHHHHHH

- PAA (ppm) [1]: 468.8 ppm
- Peracetic acid (ppm) [2]: 658.5 ppm
B9: EZ-30: Mlo-link1-H6, SEQ ID NO: 454 (protein)
chain: MPFPDLIQPELGAYVSSVGMPDDFAQFWTSTIAEARQAGGEVSIVQAQTTLKAVQSFDVTFPGYGGHPIKGWLILPTHHKGRLPLVVQYIGYGGGRGLAHEQLHWAASGFAYFRMDTRGQGSDWSVGETADPVGSTSSIPGFMTRGVLDKNDYYYRRLFTDAVRAIDALLGLDFVDPERIAVCGDSQGGGISLAVGGIDPRVKAVMPDVPFLCDFPRAVQTAVRDPYLEIVRFLAQHREKKAAVFETLNYFDCVNFARRSKAPALFSVALMDEVCPPSTVYGAFNAYAGEKTITEYEFNNHEGGQGYQERQQMTWLSRLFGVGGPGSGGAGSPGSAGGPGSHHHHHH

The next lines start with the molecule.

B1: EZ-35: Lla-link1-DenP308-H6, SEQ ID NO: 459 (protein)
chain: MTKINNWQDYQGSSLKPEDFDKFWDEKINLVSNHQFEFELIEKNLSSKVVNFYHLWFTAIDGAKIHAQLIVPKNLKEKYPAILQFHGYHCDSGDWVDKIGIVAEGNVVLALDCRGQGGLSQDNIQTMGMTMKGLIVRGIDEGYENLYYVRQFMDLITATKILSEFDFVDETNISAQGASQGGALAVACAALSPLIKKVTATYPFLSDYRKAYELGAEESAFEELPYWFQFKDPLHLREDWFFNQLEYIDIQNLAPRIKAEVIWILGGKDTVVPPITQMAAYNKIQSKKSLYVLPEYGHEYLPKISDWLRENQGPGSGGAGSPGSAGGPGSDPTKPPRTPTANTSRPHHNFGSGGGGSPHHHHH
- PAA (ppm) [1]: 998 ppm
- Peracetic acid (ppm) [2]: 260 ppm

B2: EZ-34: Lla-link1-HC263-H6, SEQ ID NO: 458 (protein)
chain: MTKINNWQDYQGSSLKPEDFDKFWDEKINLVSNHQFEFELIEKNLSSKVVNFYHLWFTAIDGAKIHAQLIVPKNLKEKYPAILQFHGYHCDSGDWVDKIGIVAEGNVVLALDCRGQGGLSQDNIQTMGMTMKGLIVRGIDEGYENLYYVRQFMDLITATKILSEFDFVDETNISAQGASQGGALAVACAALSPLIKKVTATYPFLSDYRKAYELGAEESAFEELPYWFQFKDPLHLREDWFFNQLEYIDIQNLAPRIKAEVIWILGGKDTVVPPITQMAAYNKIQSKKSLYVLPEYGHEYLPKISDWLRENQGPGSGGAGSPGSAGGPGSPSAQSQLPDKHSGLHERAPQRYGPEPEPEPEPIPEPPKEAPVVIEKPKPKPKPKPKPPAHDHKNQKETHQRHAAGSGGGGSPHHHHHH
- PAA (ppm) [1]: 786 ppm
- Peracetic acid (ppm) [2]: 242.2 ppm

B3: EZ-29: Bpu-link1-DenP308-H6, SEQ ID NO: 453 (protein)
chain: MQLFDLSLEELKKYKPKKTARPDFSDFWKKSLEELRQVEAEPTLESYDYPVKGVKVYRLTYQSFGHSKIEGFYAVPDQTGPHPALVRFHGYNASYDGGIHDIVNWALHGYATFGMLVRGQGGSEDTSVTPGGHALGWMTKGILSKDTYYYRGVYLDAVRALEVIQSFPEVDEHRIGVIGGSQGGALAIAAAALSDIPKVVVADYPYLSNFERAVDVALEQPYLEINSYFRRNSDPKVEEKAFETLSYFDLINLAGWVKQPTLMAIGLIDKITPPSTVFAAYNHLETDKDLKVYRYFGHEFIPAFQTEKLSFLQKHLLLSTGPGSGGAGSPGSAGGPGSDPTKPPRTPTANTSRPHHNFGSGGGGSPHHHHHH
- PAA (ppm) [1]: 2273.5 ppm
- Peracetic acid (ppm) [2]: 1299.8 ppm
- activity after binding to hydroxyapatite (in words) ([2]; targeted vs untargeted B. pumilus fusion): higher binding activity compared to the untargeted EZ-27

B4: EZ-33: Lla-link1-H6, SEQ ID NO: 457 (protein)
chain: MTKINNWQDYQGSSLKPEDFDKFWDEKINLVSNHQFEFELIEKNLSSKVVNFYHLWFTAIDGAKIHAQLIVPKNLKEKYPAILQFHGYHCDSGDWVDKIGIVAEGNVVLALDCRGQGGLSQDNIQTMGMTMKGLIVRGIDEGYENLYYVRQFMDLITATKILSEFDFVDETNISAQGASQGGALAVACAALSPLIKKVTATYPFLSDYRKAYELGAEESAFEELPYWFQFKDPLHLREDWFFNQLEYIDIQNLAPRIKAEVIWILGGKDTVVPPITQMAAYNKIQSKKSLYVLPEYGHEYLPKISDWLRENQGPGSGGAGSPGSAGGPGSHHHHHH
- PAA (ppm) [1]: 1062.5 ppm
- Peracetic acid (ppm) [2]: 359.1 ppm

B7: EZ-31: Mlo-link1-HC263-H6, SEQ ID NO: 455 (protein)
chain: MPFPDLIQPELGAYVSSVGMPDDFAQFWTSTIAEARQAGGEVSIVQAQTTLKAVQSFDVTFPGYGGHPIKGWLILPTHHKGRLPLVVQYIGYGGGRGLAHEQLHWAASGFAYFRMDTRGQGSDWSVGETADPVGSTSSIPGFMTRGVLDKNDYYYRRLFTDAVRAIDALLGLDFVDPERIAVCGDSQGGGISLAVGGIDPRVKAVMPDVPFLCDFPRAVQTAVRDPYLEIVRFLAQHREKKAAVFETLNYFDCVNFARRSKAPALFSVALMDEVCPPSTVYGAFNAYAGEKTITEYEFNNHEGGQGYQERQQMTWLSRLFGVGGPGSGGAGSPGSAGGPGSPSAQSQLPDKHSGLHERAPQRYGPEPEPEPEPIPEPPKEAPVVIEKPKPKPKPKPKPPAHDHKNQKETHQRHAAGSGGGGSPHHHHHH
- PAA (ppm) [1]: 434.9 ppm
- Peracetic acid (ppm) [2]: 241.4 ppm
